Results taken from patent publication EP4640225A1 (dated 2025).
One block for each binder: values may come before it.

Experiments:
Assay in all cases: activation reporter or marker
[1] = target: T1, KK-LC-1 peptide on HLA-B*15:01 (human)
T1 peptide: RQKRILVNL

[2] = target: T2, KK-LC-1 peptide on HLA-C*14:02 (human)
T2 peptide: RFQRNTGEM

[3] = target: T3, KK-LC-1 peptide on HLA-A*24:02 (human)
T3 peptide: RFQRNTGEM

[4] = target: T4, KK-LC-1 peptide on HLA-A*26:03 (human)
T4 peptide: RFQRNTGEM

[5] = target: T5, KK-LC-1 peptide on HLA-B*15:01 (human)
T5 peptide: RFQRNTGEM

[6] = target: T6, KK-LC-1 peptide on HLA-B*51:01 (human)
T6 peptide: RFQRNTGEM

[7] = target: T7, KK-LC-1 peptide on HLA-C*07:02 (human)
T7 peptide: RFQRNTGEM

binding result [1]: recognises
B1: pt. 1-ex15TCR (TCR, V domains shown)
Valpha: AQKVTQAQTEISVVEKEDVTLDCVYETRDTTYYLFWYKQPPSGELVFLIRRNSFDEQNEISGRYSWNFQKSTSSFNFTITASQVVDSAVYFCALSDPEESGYALNFGKGTSLLVTP
Vbeta: DTGVSQDPRHKITKRGQNVTFRCDPISEHNRLYWYRQTLGQGPEFLTYFQNEAQLEKSRLLSDRFSAERPKGSFSTLEIQRTEQGDSAMYLCASSSNEKLFFGSGTQLSVL

binding result [1]: recognises
B2: pt. 2-ex09TCR (TCR, V domains shown)
Valpha: GQNIDQPTEMTATEGAIVQINCTYQTSGFNGLFWYQQHAGEAPTFLSYNVLDGLEEKGRFSSFLSRSKGYSYLLLKELQMKDSASYLCAVDDGGATNKLIFGTGTLLAVQP
Vbeta: ETGVTQSPTHLIKTRGQQVTLRCSSQSGHNTVSWYQQALGQGPQFIFQYYREEENGRGNFPPRFSGLQFPNYSSELNVNALELDDSALYLCASSTRDRGTYEQYFGPGTRLTVT

binding result [1]: recognises
B3: pt. 1-ex08TCR (TCR, V domains shown)
Valpha: KDQVFQPSTVASSEGAVVEIFCNHSVSNAYNFFWYLHFPGCAPRLLVKGSKPSQQGRYNMTYERFSSSLLILQVREADAAVYYCAVEDVPVNDYKLSFGAGTTVTVRA
Vbeta: DAGITQSPRHKVTETGTPVTLRCHQTENHRYMYWYRQDPGHGLRLIHYSYGVKDTDKGEVSDGYSVSRSKTEDFLLTLESATSSQTSVYFCAISAEGTYEQYFGPGTRLTVT

binding result [2]: recognises
binding result [3]: no recognition
binding result [4]: no recognition
binding result [5]: no recognition
binding result [6]: no recognition
binding result [7]: no recognition
B4: pt. 2-ex08TCR (TCR, V domains shown)
Valpha: GESVGLHLPTLSVQEGDNSIINCAYSNSASDYFIWYKQESGKGPQFIIDIRSNMDKRQGQRVTVLLNKTVKHLSLQIAATQPGDSAVYFCAEIPWGGSQGNLIFGKGTKLSVKP
Vbeta: DTGVSQDPRHKITKRGQNVTFRCDPISEHNRLYWYRQTLGQGPEFLTYFQNEAQLEKSRLLSDRFSAERPKGSFSTLEIQRTEQGDSAMYLCASSRDDREYFGEGSWLTVV
